Measured values reported in the supplement of paper PMC10567573.

B1: ZNF263 (parent)
chain: LLRHQRIHTGERPYKCPECGKSFS
B2: CDS2 (parent)
chain: LIVVTQSHLVIHNLFEGMIWFIVP

Variants of: B1
Assay: protein stability index of a GFP-peptide fusion (GPS, HEK-293T) (PSI 1-6); higher = more stable
Conditions: c terminus: a fixed tail appended
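Note: lentivirally expressed fusions sorted by FACS into six bins by GFP to DsRed ratio, PSI derived from sequencing read proportions per bin multiplied by bin number.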

Protein stability index: each site, then its substitutions
L1: W 2.95, D 2.62, N 2.85, I 2.06, S 2.26, P 2.83, M 1.65, R 4.23, T 2.9, E 2.29, K 3.58, A 2.82, Y 3.07, G 2.73, F 3.5, H 2.44, Q 4.46, C 4.12, V 3.03

Variants of: B2
Assay: as above
Conditions: c terminus: a fixed tail appended

Protein stability index, by site and new letter:
F15: R 2.03, K 3.4, V 2.72, N 3.64, P 2.8, M 4.48, W 4.64, I 3.58, Q 2.25, S 3.64, E 2.13, L 2.41
Q6: V 2.76, M 1.77, P 3.21, A 2.85, L 4.3, E 2.59, S 2.58, R 1.46, D 4.07, N 3.99, C 2.42, T 2.85, I 2.71
H8: S 4.08, I 2.81, W 2.77, N 3.36, G 4.59, D 4.35, T 2.91, F 3.38, V 4.43, R 2.81, M 2.48, C 3.31, L 3.47, E 2.35
T5: C 4.62, Y 2.99, L 2.71, P 3.86, V 2.65, M 3.04, K 2.97, W 2.72, Q 3.1, A 2.62, E 2.95, R 3.33, G 4.08, H 3.62, I 2.58, S 5.49
V10: Q 4.6, H 2.88, L 1.96, I 4.56, M 2.77, A 3.19, C 2.23, T 2.15, P 1.52, G 1.83, D 1.79, W 2.46, F 3.01, K 2.67
L9: A 2.29, S 1.96, T 3.82, N 2.36, W 2.91, Q 3.56, K 3.33, I 1.84, D 2.62, F 1.48, H 1.56, P 5.08, Y 2.24, R 2.9, V 2.3
I22: Y 2.27, M 3.27, Q 1.69, L 3.99, P 2.56, T 3.85, R 2.85, N 1.8, W 3.42, F 2.83, S 3.28, D 4.26, K 3.07, A 2.07, E 3.14
F21: Y 2.52, R 2.94, I 3.28, G 2.49, V 2.39, S 2.8, W 1.6, C 3.4, E 1.96, K 4.85, N 3.24, L 3.42, T 3.04
S7: R 4.35, N 2.81, K 2.27, D 2.68, P 4.35, F 2.19, H 2.31, G 3.76, V 3.79, L 3.2, I 2.54, W 3.44, Y 3.16, T 4.59
I2: G 2.41, S 2.69, K 4.33, L 3.84, M 2.66, R 3.79, V 3.01, W 3.71, H 3.16, T 2.77
N13: P 3.48, E 2.93, H 1.83, M 4.66, T 1.61, V 3.45, D 2.63, L 3.44, I 4.67, A 4.23, Y 2.44, F 2.94, G 2.9, S 3.02, C 3.03, R 2.08, K 2.81
I19: A 2.65, W 3.61, F 2.89, M 2.95, Q 3.36, P 3.75, S 2.75, L 1.84, G 3.67, K 2.41
I11: N 4.03, G 2.27, L 2.48, H 1.57, C 3.04, V 2.52, W 1.04, D 3.58, S 3.42, E 2.39, K 4.09, R 2.2, F 3.51, M 2.84
E16: N 3.06, Q 2.01, M 3.76, G 2.9, L 4.5, F 2.52, W 3.98, A 4.16, Y 2.74, D 3.44, P 2.48, I 3.46, K 2.35, T 2.83, S 3.4
G17: M 3.13, E 2.55, D 2.93, P 2.82, A 3.15, Q 2.63, R 3.21, Y 1.68, N 2.29, L 3.83, H 2.8, S 3.9, V 3.48, I 1.85, W 2.35
L14: W 2.72, Y 3.06, P 2.64, E 2.99, Q 2.25, I 3.44, A 1.86, D 3.03, V 2.71, T 3.05, F 2.92, G 3.6, K 3.69
V3: E 2.45, G 3.92, H 3.21, W 4.23, F 3.18, I 3.46, R 2.14, L 2.57, T 2.85, Q 2.14, K 3.44, S 3.43, Y 2.91, N 2.96, P 3.31
M18: Y 3.67, E 4.08, K 1.96, I 3.09, C 4.05, W 2.66, Q 2.68, G 2.85, F 3.12, V 4.17, P 2.89, D 3.2, R 1.99, S 2.98, A 4.48
W20: I 3.21, N 3.08, F 2.83, R 2.57, M 2.28, H 3.23, Q 4.66, C 3.16, K 1.61, P 2.6, S 3.64, G 2.19, E 2.38, V 3.06, D 2.87
V23: A 2.36, W 1.67, Q 1.52, N 2.51, Y 3.02, T 3.31, D 3.03, C 3.47, I 2.9, F 4.17, S 1.85, L 3.54, E 4.22
V4: R 3.46, G 3.49, W 1.83, F 2.09, D 3.18, P 2.36, S 4.44, K 4.3, N 3.21, Q 2.74, M 3.42, C 3.17, T 3.04
H12: T 4.2, K 2.6, G 3.39, L 3.7, A 3.32, D 3.58, R 1.5, M 2.67, I 1.85, P 1.35, C 3.91
P24: Y 2.3, S 1.99, W 3.81, D 2.06, N 2.81, G 3.29, H 3.13, C 3.63, F 2.52, R 3.1, M 2.59, V 2.65, L 2.19
